Experimental findings from US20040126856A1, “Factor ixa: factor Vllla interaction and methods therefor” (priority 2004, published 2004) are described below.

Data set [1] concerns T1, A2 subunit of factor VIIIa.
T1 sequence: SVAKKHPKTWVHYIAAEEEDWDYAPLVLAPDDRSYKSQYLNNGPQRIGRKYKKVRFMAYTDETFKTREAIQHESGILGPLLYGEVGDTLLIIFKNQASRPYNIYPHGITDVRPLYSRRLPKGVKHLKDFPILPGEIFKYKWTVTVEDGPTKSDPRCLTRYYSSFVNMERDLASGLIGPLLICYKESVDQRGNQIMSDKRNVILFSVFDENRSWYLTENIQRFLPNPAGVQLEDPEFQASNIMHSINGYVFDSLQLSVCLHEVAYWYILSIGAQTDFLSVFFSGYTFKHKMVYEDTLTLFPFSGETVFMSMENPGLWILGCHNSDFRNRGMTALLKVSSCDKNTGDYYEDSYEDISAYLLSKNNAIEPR

For data set [2], the target named is T2, A2 subunit of factor VIIIa (Homo sapiens, UniProt P00451).
T2 construct: cleaved by thrombin at R372-S373, R740-S741, and R1689-S1690 to yield factor VIIIa
T2 sequence (P00451 392-759): T1 sequence
Nature of the data set: Apparent KdA2 of dEGR-IXa proteins: inhibition of IXaWT:A2 subunit interaction in the tenase system. The format is biochemical. As to conditions: 100 nM IXaWT, 30 nM A2 subunit, 250 nM factor X, 25 μM PL; from IC50 by Eq. 3 (FIG. 3); read-out: Apparent KdA2. As to the method:
Determination of KdA2 of Binding of dEGR-IXa Proteins to A2 Subunit.
The apparent Kd (termed KdA2) for binding of each dEGR-IXa protein to the A2 subunit was determined by its ability to inhibit factor IXaWT:A2 subunit interaction in the tenase complex as described earlier for intact factor VIIIa (Mather and Bajaj, 1999; Mather et al., 1997). The reactions were carried out as described for the EC50 experiments above except dEGR-IXa and IXaWT were mixed prior to addition of the A2 subunit; this ensured steady state conditions. Mixtures contained 100 nM IXaWT, 30 nM A2 subunit, 250 nM factor X, 25 μM PL, and various concentrations of dEGR-IXa proteins in TBS/BSA, pH 7.5 containing 5 mM CaCl2. The IC50 (concentration of inhibitor required for 50% inhibition) was determined by fitting the data to the IC50 four-parameter logistic equation of Halfman (1981) given below (Eq. 2). [formula]
where y is the rate of Xa formation in the presence of a given concentration of dEGR-IXa protein represented by x, a is the maximum rate of factor Xa formation in the absence of dEGR-IXa, and s is the slope factor. Each point was weighted equally, and the data were fitted to Equation 2 using the nonlinear regression analysis program GraFit from Erithacus Software. […] To obtain KdA2 values for the interaction of dEGR-IXa proteins with A2, we used the following equation (Eq. 3) as described by Cheng and Prusoff (1973) and further elaborated by Craig (1993). [formula]
where A is the concentration of IXaWT, and EC50 is the concentration of factor IXaWT that gives a 50% maximum response in the absence of the competitor at a specified concentration of factor X used in the experiment.

Data set [3] addresses A2 subunit of factor VIIIa (human) (UniProt P00451). In words: potentiation of factor X activation by A2 subunit (FIGS. 1 and 2); functional Kd.
Data set [4] shares this target. Nature of the data set: factor Xa generation at rising A2 subunit, 5 nM IXa; factor X >1 µM; functional Kd.
Data set [5] shares this target. In words: factor Xa generation at rising A2 subunit, 5 nM IXa; factor X <150 nM; functional Kd.
In data set [6] the target is T3, dEGR-IXaPCEGF1 (factor IXaPCEGF1 inactivated with dansyl-Glu-Gly-Arg-chloromethyl ketone) (human, UniProt P04070 88-134, limits assumed, active site inactivated with dansyl-Glu-Gly-Arg-chloromethyl ketone (dEGR-ck); gamma-carboxyglutamic acid residues in the Gla domain (normal Gla content)).
T3 construct: domain: EGF1
In words: dansyl fluorescence quenching, 220 nM dEGR-IXa titrated with A2 subunit, bimolecular association fit (FIG. 4). As to the method: (§1) The effect of the A2 subunit on the emission intensity of the dansyl moiety in each dEGR-IXa protein was determined using the SLM AB2 spectrofluorometer. Each reaction mixture contained 220 nM dEGR-IXa in 20 mM Hepes, pH 7.2, 100 mM NaCl, 5 mM CaCl₂, 0.01% Tween, 200 μg/ml BSA and 100 μM PL vesicles. The excitation wavelength was 340 nm (slit width, 8 nm) and the emission wavelength was 540 nm (slit width; 8 nm). First, blank values (in triplicate) were obtained for the buffer containing PL. dEGR-IXa was then added and the emission intensity in the absence of the A2 subunit was recorded. Each reaction mixture was subsequently titrated with the A2 subunit and the emission readings (in triplicate) were obtained at each time point. The fluorescence emission intensity at each point was corrected for increases in the reaction volume prior to analysis of the data. […] Data are presented as F/F₀ where F₀ is the emission intensity in the absence of A2 subunit and F is the intensity at a given A2 subunit concentration.

In data set [7] the target is T4, dEGR-IXaWT (factor IXaWT inactivated with dansyl-Glu-Gly-Arg-chloromethyl ketone) (human, UniProt P00740 47-190; P00740 227-461, active site inactivated with dansyl-Glu-Gly-Arg-chloromethyl ketone (dEGR-ck); gamma-carboxyglutamic acid residues in the Gla domain (normal Gla content)).
T4 construct: also called dEGR-IXWT
The description is as above. As to the method: as §1

Data set [8] deals with T5, dEGR-IXaVIIhelix (factor IXaVIIhelix inactivated with dansyl-Glu-Gly-Arg-chloromethyl ketone) (human, UniProt P08709 364-372, active site inactivated with dansyl-Glu-Gly-Arg-chloromethyl ketone (dEGR-ck); gamma-carboxyglutamic acid residues in the Gla domain (normal Gla content)).
T5 construct: domain: helix c162-170; also called dEGR-IXVIIhelix
In words: dEGR-IXa competition with 100 nM IXaWT for 30 nM A2 in tenase assay (FIG. 3); apparent KdA2.

The target of data set [9] is T3, dEGR-IXaPCEGF1 (factor IXaPCEGF1 …). Nature of the data set: dEGR-IXa competition with 100 nM IXaWT for 30 nM A2 in tenase assay (FIG. 3); IC50 converted by Cheng-Prusoff; apparent KdA2.
The target of data set [10] is T4, dEGR-IXaWT (factor IXaWT inactivated …). The description is as above.
The target in data set [11] is dEGR-IXaR333Q (factor IXaR333Q inactivated with dansyl-Glu-Gly-Arg-chloromethyl ketone) (human, UniProt P00740 47-190; P00740 227-461, active site inactivated with dansyl-Glu-Gly-Arg-chloromethyl ketone (dEGR-ck); gamma-carboxyglutamic acid residues in the Gla domain (normal Gla content)). The description is as above.
Sequence of dEGR-IXaR333Q (factor IXaR333Q inactivated with dansyl-Glu-Gly-Arg-chloromethyl ketone) (P00740 47-190, form in doubt, chain 1 of 2): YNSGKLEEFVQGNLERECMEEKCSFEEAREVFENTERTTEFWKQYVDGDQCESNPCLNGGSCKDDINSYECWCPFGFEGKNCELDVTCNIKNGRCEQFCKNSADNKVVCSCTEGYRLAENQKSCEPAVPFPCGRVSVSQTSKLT
Sequence of dEGR-IXaR333Q (factor IXaR333Q inactivated with dansyl-Glu-Gly-Arg-chloromethyl ketone) (P00740 227-461 R379Q, form in doubt, chain 2 of 2): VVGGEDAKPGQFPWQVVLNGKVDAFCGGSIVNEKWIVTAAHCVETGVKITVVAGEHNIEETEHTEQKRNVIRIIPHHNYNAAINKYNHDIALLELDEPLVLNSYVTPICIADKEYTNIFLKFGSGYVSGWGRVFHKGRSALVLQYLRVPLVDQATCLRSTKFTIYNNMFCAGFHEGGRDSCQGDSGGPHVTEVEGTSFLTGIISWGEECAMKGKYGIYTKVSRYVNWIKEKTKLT

T4 sequence (P00740 47-190, form in doubt, chain 1 of 2): as the sequence (P00740 47-190, form in doubt, chain 1 of 2) above
T4 sequence (P00740 227-461, form in doubt, chain 2 of 2): as the sequence (P00740 227-461 R379Q, form in doubt, chain 2 of 2) above, with Q153R counted along it
T3 sequence (P04070 other isoform, or with tags, fused parts or gaps limits assumed, form in doubt, chain 1 of 2): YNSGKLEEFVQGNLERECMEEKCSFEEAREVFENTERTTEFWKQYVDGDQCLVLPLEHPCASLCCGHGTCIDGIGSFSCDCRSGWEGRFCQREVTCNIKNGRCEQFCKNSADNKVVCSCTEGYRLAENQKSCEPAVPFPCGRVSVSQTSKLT
T3 sequence (heavy, as listed by the source limits assumed, form in doubt, chain 2 of 2): as the sequence (P00740 227-461 R379Q, form in doubt, chain 2 of 2) above, with Q153R counted along it
T5 sequence (light, as listed by the source limits assumed, form in doubt, chain 1 of 2): as the sequence (P00740 47-190, form in doubt, chain 1 of 2) above
T5 sequence (heavy, as listed by the source limits assumed, form in doubt, chain 2 of 2): as the sequence (P00740 227-461 R379Q, form in doubt, chain 2 of 2) above, with L150R, V151L, D152M, Q153T, A154Q, T155D, R158Q counted along it

Regarding “factor IXaWT (wild-type recombinant factor IX activated by factor XIa)”, the “enhancement of factor X activation (factor Xa generation, S-2222 hydrolysis)” value (“enhancement of factor X activation” below) in [1] is “The presence of the A2 subunit in the reaction mixtures enhanced the factor X-activating activity of IXaPCEGF1 to the same extent as that of IXaWT”.

Turning to “dEGR-IXaR333Q: IXaR333Q inactivated with dEGR-ck”, the Kd in data set [2] is ~1.8 µM.

Take “factor IXaPCEGF1 (factor IXa replacement mutant in which the EGF1 domain is replaced by that of protein C) (from UniProt P04070 88-134) (enzyme)”: the results for the EC50 in data set [3], in data set [4] and in data set [5] were 0.25 µM, 0.2 µM and 0.3 µM, respectively.

In the case of “factor IXaVIIhelix (factor IXa replacement mutant in which helix 330-338 (c162-170) is replaced by that of factor VII)”, in data set [1], the “enhancement of factor X activation” value was “it was absent for the IXaVIIhelix”.

For “dEGR-IXaPCEGF1: IXaPCEGF1 inactivated with dEGR-ck”, in [2], the Kd is ~0.1 µM.

Take “factor IXaPCEGF1 (factor IXa replacement mutant in which the EGF1 domain is replaced by that of protein C)”: the “enhancement of factor X activation” value in [1] is “The presence of the A2 subunit in the reaction mixtures enhanced the factor X-activating activity of IXaPCEGF1 to the same extent as that of IXaWT”.

As for “dEGR-IXaWT: IXaWT inactivated with dansyl-Glu-Gly-Arg-chloromethyl ketone (dEGR-ck)”, in data set [2], the Kd was ~0.1 µM.

B1: A2 subunit of factor VIIIa (other)
chain: T1 sequence
notes: also called isolated A2 subunit
Take B1: the Kd in [6] is ~0.1 µM; in data set [7] it was ~0.1 µM; in [8] it was > 1 µM; in data set [9], 0.114 µM; in data set [10] it was 0.1 µM; in data set [11], 1.85 µM.
